Publication PMC9482650, “Quantitative fragmentomics allow affinity mapping of interactomes” (Nature Communications, 2022)

Tests used:
Test in all cases: holdup assay
Parameters in all cases: key: below the threshold = too weak to quantify, mostly under pKd 3.1 to 4
Conditions in all cases: plain residues with an end cap or a label only (N-terminal biotin on a linker: ttds)
NHERF4_4, Q86UT5 = molecular target: NHERF4_4, Q86UT5
MAGI1_1, Q96QZ7 = molecular target: MAGI1_1, Q96QZ7
LNX1_2, Q8TBB1 = molecular target: LNX1_2, Q8TBB1
GIPC2, Q8TF65 = molecular target: GIPC2, Q8TF65
TJP1_3, Q07157 = molecular target: TJP1_3, Q07157
LNX1_1, Q8TBB1 = molecular target: LNX1_1, Q8TBB1
DLG3_2, Q92796 = molecular target: T1, DLG3_2, Q92796
T1 sequence (Q92796 221-321, limits assumed, looked up): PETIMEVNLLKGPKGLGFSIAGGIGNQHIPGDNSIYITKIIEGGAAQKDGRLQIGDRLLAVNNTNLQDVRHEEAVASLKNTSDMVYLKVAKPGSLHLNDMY

CASK, O14936 = molecular target: CASK, O14936
SNTG1, Q9NSN8 = molecular target: T2, SNTG1, Q9NSN8
T2 sequence (Q9NSN8 52-150, limits assumed, looked up): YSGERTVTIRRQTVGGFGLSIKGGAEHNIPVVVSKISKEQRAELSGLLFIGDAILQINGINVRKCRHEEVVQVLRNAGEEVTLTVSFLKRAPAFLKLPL

PTPN13_1, Q12923 = molecular target: T3, PTPN13_1, Q12923
T3 sequence (Q12923 1088-1188, limits assumed, looked up): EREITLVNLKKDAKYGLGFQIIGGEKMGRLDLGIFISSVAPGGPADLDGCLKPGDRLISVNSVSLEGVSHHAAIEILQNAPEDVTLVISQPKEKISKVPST

TX1BP3, O14907 = molecular target: T4, TX1BP3, O14907
T4 sequence (O14907 10-122, limits assumed, looked up): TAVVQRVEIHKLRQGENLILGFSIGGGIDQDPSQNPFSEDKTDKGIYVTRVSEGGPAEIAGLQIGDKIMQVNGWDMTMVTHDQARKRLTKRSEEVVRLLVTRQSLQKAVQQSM

Inadl_8, Q8NI35 = molecular target: Inadl_8, Q8NI35
MAGI2_6, Q86UL8 = molecular target: MAGI2_6, Q86UL8
MAGI2_4, Q86UL8 = molecular target: MAGI2_4, Q86UL8
DLG3_3, Q92796 = molecular target: T5, DLG3_3, Q92796
T5 sequence (Q92796 374-475, limits assumed, looked up): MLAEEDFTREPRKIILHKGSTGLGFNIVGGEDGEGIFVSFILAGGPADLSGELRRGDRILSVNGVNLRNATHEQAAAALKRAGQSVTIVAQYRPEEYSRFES

DLG3_1, Q92796 = molecular target: T6, DLG3_1, Q92796
T6 sequence (Q92796 125-227, limits assumed, looked up): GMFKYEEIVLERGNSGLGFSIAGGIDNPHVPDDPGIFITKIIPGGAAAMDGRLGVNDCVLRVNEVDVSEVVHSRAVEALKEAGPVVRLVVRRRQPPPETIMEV

FRMPD2_3, Q68DX3 = molecular target: FRMPD2_3, Q68DX3
LIN7B, Q9HAP6 = molecular target: T7, LIN7B, Q9HAP6
T7 sequence (Q9HAP6 88-185, limits assumed, looked up): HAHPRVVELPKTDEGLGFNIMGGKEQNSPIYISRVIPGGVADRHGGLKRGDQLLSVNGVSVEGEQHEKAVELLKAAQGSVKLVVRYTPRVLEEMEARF

DLG4_2, P78352 = molecular target: DLG4_2, P78352
Inadl_3, Q8NI35 = molecular target: Inadl_3, Q8NI35
TJP3_3, O95049 = molecular target: T8, TJP3_3, O95049
T8 sequence (O95049 375-456, limits assumed, looked up): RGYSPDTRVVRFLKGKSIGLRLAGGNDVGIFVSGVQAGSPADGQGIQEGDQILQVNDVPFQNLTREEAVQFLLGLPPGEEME

Inadl_9, Q8NI35 = molecular target: Inadl_9, Q8NI35
GRIP1_2, Q9Y3R0 = molecular target: T9, GRIP1_2, Q9Y3R0
T9 sequence (Q9Y3R0 145-248, limits assumed, looked up): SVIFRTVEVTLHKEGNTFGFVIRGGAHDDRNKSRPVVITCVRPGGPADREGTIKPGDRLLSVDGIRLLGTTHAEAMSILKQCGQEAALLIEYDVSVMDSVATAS

NHERF3_3, Q5T2W1 = molecular target: T10, NHERF3_3, Q5T2W1
T10 sequence (Q5T2W1 238-333, limits assumed, looked up): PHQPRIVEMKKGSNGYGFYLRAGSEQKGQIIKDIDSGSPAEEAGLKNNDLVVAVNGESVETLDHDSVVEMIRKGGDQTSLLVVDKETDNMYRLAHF

APBA1_1, Q02410 = molecular target: T11, APBA1_1, Q02410
T11 sequence (Q02410 651-752, limits assumed, looked up): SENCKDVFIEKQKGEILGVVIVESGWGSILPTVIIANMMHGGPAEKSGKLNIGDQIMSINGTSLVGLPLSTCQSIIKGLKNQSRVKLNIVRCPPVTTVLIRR

MPP2, Q14168 = molecular target: T12, MPP2, Q14168
T12 sequence (Q14168 180-250, limits assumed, looked up): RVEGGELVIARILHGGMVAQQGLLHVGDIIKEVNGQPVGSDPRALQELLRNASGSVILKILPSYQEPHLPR

Chain of MAGI1_1, Q96QZ7 (Q96QZ7 1-106): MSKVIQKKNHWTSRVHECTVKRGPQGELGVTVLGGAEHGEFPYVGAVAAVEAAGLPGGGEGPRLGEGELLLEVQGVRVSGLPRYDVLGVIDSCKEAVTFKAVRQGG
Chain of LNX1_1, Q8TBB1 (Q8TBB1 261-371): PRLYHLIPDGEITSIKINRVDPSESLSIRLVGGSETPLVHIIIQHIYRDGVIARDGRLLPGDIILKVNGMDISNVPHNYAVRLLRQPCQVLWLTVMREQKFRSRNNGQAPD
Chain of MAGI2_6, Q86UL8 (Q86UL8 1141-1229): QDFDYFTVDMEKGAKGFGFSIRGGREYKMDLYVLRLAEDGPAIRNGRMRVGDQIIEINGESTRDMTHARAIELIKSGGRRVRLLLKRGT
Chain of Inadl_8, Q8NI35 (Q8NI35 1425-1530): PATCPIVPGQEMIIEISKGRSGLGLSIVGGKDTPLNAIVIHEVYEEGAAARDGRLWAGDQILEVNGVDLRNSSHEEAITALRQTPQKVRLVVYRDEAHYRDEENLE
Chain of DLG4_2, P78352 (P78352 155-259): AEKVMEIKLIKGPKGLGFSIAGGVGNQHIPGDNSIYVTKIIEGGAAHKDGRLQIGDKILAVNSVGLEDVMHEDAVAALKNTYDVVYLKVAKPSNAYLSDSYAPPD
Chain of CASK, O14936 (O14936 487-570): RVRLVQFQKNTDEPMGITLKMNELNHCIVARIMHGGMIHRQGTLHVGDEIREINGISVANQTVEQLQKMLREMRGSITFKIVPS
Chain of Inadl_3, Q8NI35 (Q8NI35 359-469): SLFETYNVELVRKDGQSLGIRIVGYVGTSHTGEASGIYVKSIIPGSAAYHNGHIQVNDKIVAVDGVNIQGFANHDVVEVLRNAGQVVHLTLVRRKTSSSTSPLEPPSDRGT
Chain of Inadl_9, Q8NI35 (Q8NI35 1530-1615): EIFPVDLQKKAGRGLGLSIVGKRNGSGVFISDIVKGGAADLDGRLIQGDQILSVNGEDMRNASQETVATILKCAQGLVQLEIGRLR
Chain of MAGI2_4, Q86UL8 (Q86UL8 772-865): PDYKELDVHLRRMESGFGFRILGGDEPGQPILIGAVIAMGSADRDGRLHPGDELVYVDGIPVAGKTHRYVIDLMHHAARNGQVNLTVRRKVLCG
Chain of NHERF4_4, Q86UT5 (Q86UT5 464-550): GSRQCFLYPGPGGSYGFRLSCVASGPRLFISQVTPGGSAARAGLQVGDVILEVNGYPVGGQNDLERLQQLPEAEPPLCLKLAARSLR
Chain of LNX1_2, Q8TBB1 (Q8TBB1 371-470): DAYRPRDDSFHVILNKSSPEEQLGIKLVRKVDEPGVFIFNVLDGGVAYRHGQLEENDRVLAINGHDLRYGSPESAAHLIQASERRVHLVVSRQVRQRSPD
Chain of TJP1_3, Q07157 (Q07157 416-512): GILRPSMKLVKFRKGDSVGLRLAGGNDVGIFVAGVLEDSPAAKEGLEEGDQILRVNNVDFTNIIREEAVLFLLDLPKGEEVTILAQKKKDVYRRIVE
Chain of FRMPD2_3, Q68DX3 (Q68DX3 1073-1166): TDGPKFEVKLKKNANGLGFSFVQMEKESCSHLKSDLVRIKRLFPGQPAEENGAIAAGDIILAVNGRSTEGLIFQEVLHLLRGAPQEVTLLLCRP
Chain of GIPC2, Q8TF65 (Q8TF65 112-203): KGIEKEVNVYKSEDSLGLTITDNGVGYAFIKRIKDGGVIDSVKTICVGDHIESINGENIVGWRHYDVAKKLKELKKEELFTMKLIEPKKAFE

B1: SLC2A1, P11166 (peptide)
chain: FHPLGADSQV
- pKd (NHERF4_4, Q86UT5): below the threshold
- pKd (MAGI1_1, Q96QZ7): below the threshold
- pKd (LNX1_2, Q8TBB1): below the threshold
- pKd (GIPC2, Q8TF65): 3.5
- pKd (TJP1_3, Q07157): below the threshold
- pKd (LNX1_1, Q8TBB1): below the threshold
- pKd (DLG3_2, Q92796): 4.03
- pKd (CASK, O14936): below the threshold
- pKd (SNTG1, Q9NSN8): 3.88
- pKd (PTPN13_1, Q12923): below the threshold
- pKd (TX1BP3, O14907): 3.77
- pKd (Inadl_8, Q8NI35): below the threshold
- pKd (MAGI2_6, Q86UL8): 3.99
- pKd (MAGI2_4, Q86UL8): below the threshold
- pKd (DLG3_3, Q92796): below the threshold
- pKd (DLG3_1, Q92796): below the threshold
- pKd (FRMPD2_3, Q68DX3): below the threshold
- pKd (LIN7B, Q9HAP6): below the threshold
- pKd (DLG4_2, P78352): 3.95
- pKd (Inadl_3, Q8NI35): below the threshold
- pKd (TJP3_3, O95049): below the threshold
- pKd (Inadl_9, Q8NI35): below the threshold
- pKd (GRIP1_2, Q9Y3R0): below the threshold
- pKd (NHERF3_3, Q5T2W1): below the threshold
- pKd (APBA1_1, Q02410): below the threshold
- pKd (MPP2, Q14168): below the threshold

B2: DOCK4, Q8N1I0 (peptide)
chain: RPLPRKVSQL
- pKd (NHERF4_4, Q86UT5): below the threshold
- pKd (MAGI1_1, Q96QZ7): below the threshold
- pKd (LNX1_2, Q8TBB1): below the threshold
- pKd (GIPC2, Q8TF65): below the threshold
- pKd (TJP1_3, Q07157): below the threshold
- pKd (LNX1_1, Q8TBB1): below the threshold
- pKd (DLG3_2, Q92796): below the threshold
- pKd (CASK, O14936): below the threshold
- pKd (SNTG1, Q9NSN8): below the threshold
- pKd (PTPN13_1, Q12923): below the threshold
- pKd (TX1BP3, O14907): 4.41
- pKd (Inadl_8, Q8NI35): below the threshold
- pKd (MAGI2_6, Q86UL8): below the threshold
- pKd (MAGI2_4, Q86UL8): below the threshold
- pKd (DLG3_3, Q92796): below the threshold
- pKd (DLG3_1, Q92796): below the threshold
- pKd (FRMPD2_3, Q68DX3): below the threshold
- pKd (LIN7B, Q9HAP6): below the threshold
- pKd (DLG4_2, P78352): below the threshold
- pKd (Inadl_3, Q8NI35): below the threshold
- pKd (TJP3_3, O95049): below the threshold
- pKd (Inadl_9, Q8NI35): below the threshold
- pKd (GRIP1_2, Q9Y3R0): below the threshold
- pKd (NHERF3_3, Q5T2W1): below the threshold
- pKd (APBA1_1, Q02410): below the threshold
- pKd (MPP2, Q14168): below the threshold

B3: HPV73-E6, Q82005 (peptide)
chain: SGSRPSATVV
- pKd (NHERF4_4, Q86UT5): below the threshold
- pKd (MAGI1_1, Q96QZ7): below the threshold
- pKd (LNX1_2, Q8TBB1): 4.06
- pKd (GIPC2, Q8TF65): 3.62
- pKd (TJP1_3, Q07157): below the threshold
- pKd (LNX1_1, Q8TBB1): 3.74
- pKd (DLG3_2, Q92796): 4.11
- pKd (CASK, O14936): below the threshold
- pKd (SNTG1, Q9NSN8): 3.6
- pKd (PTPN13_1, Q12923): 3.61
- pKd (TX1BP3, O14907): below the threshold
- pKd (Inadl_8, Q8NI35): 3.53
- pKd (MAGI2_6, Q86UL8): below the threshold
- pKd (MAGI2_4, Q86UL8): 4.49
- pKd (DLG3_3, Q92796): below the threshold
- pKd (DLG3_1, Q92796): below the threshold
- pKd (FRMPD2_3, Q68DX3): below the threshold
- pKd (LIN7B, Q9HAP6): below the threshold
- pKd (DLG4_2, P78352): 4.14
- pKd (Inadl_3, Q8NI35): below the threshold
- pKd (TJP3_3, O95049): below the threshold
- pKd (Inadl_9, Q8NI35): 3.59
- pKd (GRIP1_2, Q9Y3R0): below the threshold
- pKd (NHERF3_3, Q5T2W1): below the threshold
- pKd (APBA1_1, Q02410): below the threshold
- pKd (MPP2, Q14168): below the threshold
